Target: Flag::Hth (Homothorax, Flag-tagged) (Drosophila) (UniProt O46339)
Assay: co-IP; SF9 extracts with Flag::Hth, His::Exd and HA::Abd-B (wild type or W>A) mixed and incubated on anti-Flag resin; lysis solution 140 mM KCl, 5% glycerol, 2.5% MgCl2, 25 mM Hepes pH 7.8, 10 mM imidazole; Western blot by the tags

Sequence of UniProt O46339 (O46339 whole entry): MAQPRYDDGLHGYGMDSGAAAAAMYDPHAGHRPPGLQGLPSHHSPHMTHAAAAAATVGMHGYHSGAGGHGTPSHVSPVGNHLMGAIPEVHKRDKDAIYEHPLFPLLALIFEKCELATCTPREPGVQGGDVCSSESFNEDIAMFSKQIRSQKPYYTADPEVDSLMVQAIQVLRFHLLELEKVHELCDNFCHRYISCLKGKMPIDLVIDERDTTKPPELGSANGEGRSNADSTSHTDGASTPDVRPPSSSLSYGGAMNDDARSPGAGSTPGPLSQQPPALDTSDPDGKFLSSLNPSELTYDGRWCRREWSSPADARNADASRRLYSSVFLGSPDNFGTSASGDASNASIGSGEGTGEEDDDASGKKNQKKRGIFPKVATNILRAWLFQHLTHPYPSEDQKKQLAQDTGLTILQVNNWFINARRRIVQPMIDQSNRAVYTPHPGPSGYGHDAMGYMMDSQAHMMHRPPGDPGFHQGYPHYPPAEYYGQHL

percent reduction of co-precipitated protein against wild-type Abd-B: 24%
Substance: HA::Abd-B^W (Abdominal-B with the Tryptophan of the HX-like motif mutated to Alanine, HA-tagged) (from UniProt P09087 1-493)

— paper PMC11759358
